Several values for one entry are separate records, joined by “and”; a condition that tells them apart may be missing. Identical values can stand only once.
Biological target: PorKN heterodimer unit (P. gingivalis)
Test: cryo-EM structure

In the case of PorKN heterodimer unit (complex), the stoichiometry N is reported as 31 to 35 (2×) and 33.
